Patent US8298536B2, “Methods of treating inflammatory pain” (Pfizer Limited, priority 2008, dated 2012)
Numbering of substitutions follows the chain as printed.

Key:
human α-CGRP [1] = molecular target: T1, human α-CGRP (Homo sapiens, UniProt P06881); assay: Binding assay: blocking human α-CGRP from binding to the CGRP1-receptor in SK-N-MC cells; set-up: CGRP (calcitonin gene-related peptide) is a 37 amino acid neuropeptide; host or cells: SK-N-MC cells (endogenous receptor); details: FIG. 2
T1 sequence (P06881 83-119 limits assumed): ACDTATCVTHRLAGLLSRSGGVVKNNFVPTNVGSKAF

human or rat CGRP = assay: Solution competition by Biacore: human or rat CGRP; assay type: binding; details: premixed mAb+peptide
Excerpt: (§1) FIG. 5: Solution competition by Biacore: CGRP, CGRP fragments or peptides related in sequence to CGRP were used to determine the specificity of G1.
(§2) We determined the specificity of antibody G1 to human or rat CGRP by using the Biacore chip to “probe” the free concentration of a premixed complex of mAb+peptide.

human β-CGRP = molecular target: T2, human β-CGRP (Homo sapiens, UniProt P10092); assay: Biacore binding affinity, N-biotin β-human CGRP on chip; details: 37 ° C.
T2 construct: CGRP (calcitonin gene-related peptide) is a 37 amino acid neuropeptide
T2 sequence (P10092 82-118 limits assumed): T1 sequence (P06881 83-119 limits assumed) with D3N, V22M, N25S
Excerpt: (§3) G1 was titrated over the chip surface Binding affinities were deduced from the quotient of the kinetic rate constants (KD=koff/kon) see Table 1.

[2] = test system: neurogenic skin flare rat model; assay: Neurogenic skin flare model (saphenous nerve stimulation, laser Doppler blood flow); assay type: in vivo; details: for start of significant decrease in blood flow response / development of neurogenic flare in vivo: rat
Experimental: FIG. 7: Data showing G1 inhibits neurogenic flare in the skin starting from 90 min post-treatment. G1 was administered by intravenous administration (1 ml/kg). Data are from 6-8 or 13 rats per group. *p=0.05, **p=0.01 vs vehicle (phosphate buffered saline) treated group at each time point (AVOVA).
Using a neurogenic skin flare rat model the efficacy of G1 was tested for its ability to block CGRP effect in vivo. The saphenous nerve in the rat is electrically stimulated causing CGRP release from nerve endings and leading to vasodilation, the resulting changes in blood flow can be measured using laser Dopler methods.
Changes in blood flow parameters were expressed as the area under the curve (AUC, change in arbitrary Doppler flux units multiplied by time). CGRP receptor antagonist CGRP8-37 (400 nmol/kg, i.v.) was used as a positive control to validate the specificity of the model (data not shown). To determine the effect of G1 prior to dosing for each animal, the baseline blood flow response to stimulation was established with two saphenous nerve stimulations each 30 minutes apart. Rats were treated with G1 after the blood flow response of the second stimulation had returned to baseline levels (approximately 10 minutes post stimulation) and an additional four stimulations at 30 minute intervals were performed.

rat = assay: Gastro-intestinal adverse effects in-vivo study
human α-CGRP [3] = molecular target: T1, human α-CGRP; assay: Biacore binding affinity, N-biotinylated human α-CGRP on chip; set-up: as full-length N-biotinylated human α-CGRP
Excerpt: as §3

[4] = test system: 25-37 human α-CGRP fragment; assay: Epitope identification, alanine scan of C-terminal CGRP fragment (Biacore 3000); assay type: binding; details: Fab fragments, positions 27-37 mutated to alanine, 25° C.
Experimental: (§4) FIG. 4: Alanine scan using a C-terminal CGRP fragment (CGRP 25-37).
(§5) Interaction analysis was conducted at 25° C. on a Biacore 3000™ system equipped with streptavidin-coated (SA) sensor chips (Biacore AB, Uppsala, Sweden) using a standard Biacore running buffer (HBS-P). […] Each amino acid between position 27-37 was then mutated individually to alanine and expressed the fold loss in affinity compared to the wild-type fragment. […] Purified Fab fragments of antibody G1 were generated. Fab fragments were titrated over the chip using 1 μM as the top concentration of a two-fold dilution series. Association and dissociation phases were monitored at 100 μl/min for 1 minute and 5 minutes respectively. Surfaces were regenerated with a mixture of 35% ethanol+25 mM NaOH+0.5M NaCl.

[5] = molecular target: 25-37 human α-CGRP fragment (Homo sapiens, UniProt P06881); assay: as above; assay type: binding; details: 25° C.
Experimental: as §4, §5

rats = assay: Long term observation for adverse CNS events (dependence indicators); assay type: in vivo, rat; details: in comparison to control animals
rat α-CGRP = molecular target: T3, rat α-CGRP (Rattus norvegicus, UniProt P01256); assay: Biacore binding affinity, N-biotinylated rat α-CGRP on chip
T3 construct: CGRP (calcitonin gene-related peptide) is a 37 amino acid neuropeptide
T3 sequence (P01256 83-119 limits assumed): T1 sequence (P06881 83-119 limits assumed) with A1S, D3N, N25D, K35E
Excerpt: as §3

rat β-CGRP = molecular target: T4, rat β-CGRP (Rattus norvegicus, UniProt P10093, R105S); assay: Biacore binding affinity, N-biotin β-rat CGRP on chip; details: 37 ° C.
T4 construct: CGRP (calcitonin gene-related peptide) is a 37 amino acid neuropeptide
T4 sequence (P10093 89-125 R105S limits assumed): T1 sequence (P06881 83-119 limits assumed) with A1S, D3N, N25D
Excerpt: as §3

calcitonin = molecular target: T5, calcitonin (Homo sapiens, UniProt P01258); assay: Solution competition by Biacore: calcitonin; assay type: binding; details: pre-incubation with an excess of peptide
T5 sequence (P01258 85-116 limits assumed): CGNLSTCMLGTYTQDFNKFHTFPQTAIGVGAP
Excerpt: as §1, §2

[6] = test system: OA hind limb of the rat (MMT); assay: Osteoarthritis pain model (transection of the medial meniscus, MMT), weight bearing; assay type: in vivo
Experimental: FIG. 1: Osteoarthritis pain model. […] Both antibodies were dissolved in a vehicle solution containing PBS+0.01% Tween 20. Celecoxib was used as positive control in the study. It was suspended in 0.5% methylcellulose and 0.025% Tween-20 and was administered by oral gavage (1 ml/kg) at 30 mg/kg, twice a day throughout the study period. Pain responses were assessed on day 2, 3, 7 and 10 following initiation of the pharmacology study (day 0) and were assessed in a fully blinded fashion. Data re the mean±SEM of 6 rats per group. *p<0.05 and p<0.01 vs baseline value (Dunnett's test in GraphPad Prism). In the figure, from left to right, bar 1=baseline, bars 2-5=null antibody, bars 6-9=1 mg/ml G2, bars 10-13=10 mg/ml G2, bars 14-17=Celecoxib 30 mg/ml.
Transection of the medial meniscus (MMT) in one hind knee of the rat results in the development of cartilage lesions and other changes in the joint similar to those that occur in OA. The resulting joint pain leads to the development of sustained changes in weight bearing (assessed using an incapacitance meter) in the rat hind limbs and mechanical (tactile) allodynia (assessed using von Frey filaments), in the hind paw, lasting several weeks. Studies were carried out accordingly to a blind protocol, where the investigator was not aware of the identity of the compound/control or the treatment of the animal.

CNS penetration = details: in vivo
amylin = molecular target: T6, amylin (Homo sapiens, UniProt P10997); assay: Solution competition by Biacore: amylin; assay type: binding; details: pre-incubation with an excess of peptide
T6 sequence (P10997 34-70 limits assumed): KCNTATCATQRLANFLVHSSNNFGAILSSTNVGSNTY
Excerpt: as §1, §2

adrenomedullin = molecular target: T7, adrenomedullin (Homo sapiens, UniProt P35318); assay: Solution competition by Biacore: adrenomedullin; assay type: binding; details: pre-incubation with an excess of peptide
T7 sequence (P35318 95-146 limits assumed): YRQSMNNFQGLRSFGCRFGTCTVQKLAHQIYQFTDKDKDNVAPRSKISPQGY
Excerpt: as §1, §2

[7] = Plasma exposure of antibody in the OA pain study; assay type: in vivo; details: rat
Experimental: This effect lasted 10 days post administration when the plasma exposure of antibody G2 achieved an average value of 65.1±3 ug/ml (6.3±0.3 ug/ml, for the lower dose at 10 days post IV).

Molecule: G1: humanized IgG2Δa monoclonal anti-CGRP antagonist antibody, vectors ATCC PTA-6867 and PTA-6866; variable regions SEQ ID Nos. 1 and 2 [Antibody G1]
- inhibition of binding of α-CGRP to the CGRP1 receptor (human α-CGRP [1]): inhibits the binding of α-CGRP to the CGRP1 receptor
- Biacore response after pre-incubation with human or rat CGRP (human or rat CGRP): fully blocked
- koff (human β-CGRP): 6.98e-05 s⁻¹
- kon (human β-CGRP): 451000 M⁻¹ s⁻¹
- effect in further neurogenic flare and vasodilatation model tests ([2]; 7 days post IV dosing): marked effect
- start of inhibition of neurogenic flare in the skin ([2]; FIG. 7, intravenous administration): 90 min post-treatment
- start of significant decrease in blood flow response ([2]; 1 mg/kg IV): 120 minutes post dose
- start of significant decrease in blood flow response ([2]; 10 mg/kg IV): 90 minutes post dose
- development of neurogenic flare in vivo [2]: prevent the development of neurogenic flare in vivo
- predicted ED50 ([2]; saphenous nerve stimulation model): 6 µg/mL
- adverse gastro intestinal effects on behaviour, food intake, stool production or histopathology (rat; 1 week comparative study): no adverse gastro intestinal effects were observed
- koff (human α-CGRP [3]; 25 ° C.): 7.8e-06 s⁻¹
- kon (human α-CGRP [3]; 25 ° C.): 186000 M⁻¹ s⁻¹
- koff (human α-CGRP [3]; 37 ° C.): 3.63e-05 s⁻¹
- kon (human α-CGRP [3]; 37 ° C.): 587000 M⁻¹ s⁻¹
- alanine scan result, binding region (epitope) [4]: binds to the C-terminal region of human α-CGRP, particularly residues 25 to 37
- affinity of N-biotinylated 25-37 human α-CGRP fragment vs full-length N-biotinylated human α-CGRP [5]: bound with the same affinity
- adverse CNS events such as sedation or stimulation/euphoric behaviour (rats): did not reveal adverse CNS events
- koff (rat α-CGRP; 25 ° C.): 6.18e-05 s⁻¹
- kon (rat α-CGRP; 25 ° C.): 50800 M⁻¹ s⁻¹
- koff (rat α-CGRP; 37 ° C.): 0.000399 s⁻¹
- kon (rat α-CGRP; 37 ° C.): 155000 M⁻¹ s⁻¹
- koff (rat β-CGRP): 7.85e-05 s⁻¹
- kon (rat β-CGRP): 516000 M⁻¹ s⁻¹
- complex formation with calcitonin (calcitonin): did not form a complex
- shift in weight bearing on the OA limb ([6]; repeat experiments, buffer as negative control): reversed the shift in weight bearing on the OA limb to normal value
- CNS penetration / crossing of blood brain barrier (CNS penetration): Neither antibody G1 nor antibody G2 demonstrate CNS penetration
- complex formation with amylin (amylin): did not form a complex
- complex formation with adrenomedullin (adrenomedullin): did not form a complex

B1: G2: anti-rat CGRP mouse monoclonal antibody (Wong H C et al. 1993); variable regions SEQ ID Nos. 19 and 20; RN4901 = murine tool in Table 1 legend (antibody, V domains shown)
VH: EVQLQQSGPELVKPGASVKMSCKASGYTFTSSVMHWVKQKPGQGLEWIGYINPYNDGTKYNEKFKGKATLTSDKSSSTAYMELSSLTSEDSAVYYCAKGGNDGYWGQGTTLTVSS
VL: EIVLTQSPTTMAASPGEKITITCSASSSISSIYLHWYQQKPGFSPKVLIYRASNLASGVPARFSGSGSGTSYSLTIGTMEAEDVATYYCQQGSTIPFTFGSGTKLEIK
modifications: Synthetic polypeptide, Antibody G2 heavy chain variable region; Synthetic polypeptide, Antibody G2 light chain variable region
- development of neurogenic flare in vivo [2]: prevent the development of neurogenic flare in vivo
- adverse gastro intestinal effects on behaviour, food intake, stool production or histopathology (rat; 1 month study): no adverse gastro intestinal effects were observed
- adverse CNS events such as sedation or stimulation/euphoric behaviour (rats): did not reveal adverse CNS events
- plasma exposure, average value ([7]; 10 mg/kg IV, 10 days post administration): 65.1 ± 3 µg/mL
- plasma exposure, average value ([7]; lower dose, 10 days post IV): 6.3 ± 0.3 µg/mL
- duration of effect on weight bearing ([6]; 10 mg/kg, IV): 10 days post administration
- weight bearing deficit of the OA hind limb ([6]; 10 mg/kg, IV): reversed weight bearing deficit of the OA hind limb
- weight bearing deficit of the OA hind limb ([6]; lower dose (1 mg/kg, IV)): No effect
- CNS penetration / crossing of blood brain barrier (CNS penetration): Neither antibody G1 nor antibody G2 demonstrate CNS penetration
